The experiment concerns NCI-H929 target cells. As to the kind of experiment: ACTR T-cell cytokine release (IFNγ, IL2; Meso Scale Discovery) in co-culture with target cells and antibody. The format is cell-based, human. As to conditions: T-cells expressing ACTR variant SEQ ID NO: 1, E:T 4:1, 24 hours, increasing antibody concentration (FIG. 4 chimeric, FIG. 9 humanized). Here is the method:
T-cells expressing ACTR variant SEQ ID NO: 1 (effector; E) and target cells (target; T) were incubated at a 4:1, effector-to-target ratio (120,000 T cells; 30,000 target cells) with increasing concentrations of various chimeric antibodies in a 200-μL reaction volume in RPMI 1640 media supplemented with 10% fetal bovine serum. In FIG. 4, the chimeric antibodies included fucosylated and afucosylated (SEA) versions of the SG16.17 and SG16.45 anti-BCMA antibodies at a concentration range of 100-0.0005 μg/mL. In FIG. 9, humanized afucosylated (SEA) SG16.17 antibody was used at a concentration range of 3.8-0.002 μg/mL. […] Supernatants were subsequently analyzed for IFNγ and IL2 using the Meso Scale Discovery V-Plex Human IFN-γ Kit (K151QOD-4) and V-Plex Human IL-2 Kit (K151QQD-4). Briefly, the Proinflammatory Calibrator Blend, Detection Antibody Solution, and Read Buffer were prepared according to manufacturer protocols. […] Read Buffer (150 μL) was added to the plate and the plates were run on the MSD Quickplex SQ 120.
For these experiments, BCMA+ HER2− NCI− H929 and BCMA− HER2+ SKBR3 target cells were used. […] Supernatants were subsequently analyzed for IFNγ using the Meso Scale Discovery V-Plex Human IFN-γ Kit (K151QOD-4). Briefly, the Proinflammatory Calibrator Blend, Detection Antibody Solution, and Read Buffer were prepared according to manufacturer protocols. […]

B1: cSG16.45SEA: afucosylated (SEA) version of the chimeric SG16.45 anti-BCMA antibody (antibody, V domains shown)
VH: EVQLVESGGGLVQPGRSLKLSCVASGFTFNDHWMTWIRQAPGRGLEWISSITNTGGATYYLDSVKGRFTISRDNAKSTLYLQMNSLRSEDTATYYCTSPGLYFDYWGQGVMVTVSS
VL: EIVLTQSPTTTAASPGEKVTITCLATSSVSVMYWYQHKSGASPKLLIYSTSSLASGVPDRFSGSGSGTSYSLTINTMEAEDAATYYCHQWSSDPPTFGSGTKLEIKR
On to B1, for which the “ACTR T-cell IFNγ and IL2 release” value is listed as “increased potency in cytokine release when compared to their fucosylated counterparts”.

The values are drawn from patent US20190381171A1, “CO-USE OF ANTI-BCMA ANTIBODY AND ANTIBODY-COUPLED T CELL RECEPTOR (ACTR) IN CANCER THERAPY AND B CELL DISORDERS” (UNUM THERAPEUTICS INC., priority 2017, published 2019).
